Substrate in data set [1]: NC(=O)OP(=O)(O)O
The data set is described as follows: oxamate consumption by HPLC, reverse reaction. Format: biochemical, Escherichia coli. To be noted: oxamate fixed at 40 mM, 10 mM MgCl2, 100 mM Tris pH 9.0, 30 °C, 100 nM enzyme. The source says: (§1) oxamate consumption by HPLC, reverse reaction on AllFGH (AllF-AllG-AllH; FdrA-YlbE-YlbF), oxamic transcarbamylase (OXTCase)

Substrate in data set [2]: NC(=O)C(=O)O
The data set is described as follows: oxamate consumption by HPLC, reverse reaction. In kind it is biochemical, Escherichia coli. To be noted: co-substrate carbamoyl phosphate, 10 mM MgCl2, 100 mM Tris pH 9.0, 30 °C, 100 nM enzyme.
Excerpt: as §1

B1: AllFGH (AllF-AllG-AllH; FdrA-YlbE-YlbF), oxamic transcarbamylase (OXTCase) (Escherichia coli K-12) (protein)
chain 1: MIHAFIKKGCFQDSVSLMIISRKLSESENVDDVSVMMGTPANKALLDTTGFWHDDFNNATPNDICVAIRSEAADAGIAQAIMQQLEEALKQLAQGSGSSQALTQVRRWDSACQKLPDANLALISVAGEYAAELANQALDRNLNVMMFSDNVTLEDEIQLKTRAREKGLLVMGPDCGTSMIAGTPLAFANVMPEGNIGVIGASGTGIQELCSQIALAGEGITHAIGLGGRDLSREVGGISALTALEMLSADEKSEVLAFVSKPPAEAVRLKIVNAMKATGKPTVALFLGYTPAVARDENVWFASSLDEAARLACLLSRVTARRNAIAPVSSGFICGLYTGGTLAAEAAGLLAGHLGVEADDTHQHGMMLDADSHQIIDLGDDFYTVGRPHPMIDPTLRNQLIADLGAKPQVRVLLLDVVIGFGATADPAASLVSAWQKACAARLDNQPLYAIATVTGTERDPQCRSQQIATLEDAGIAVVSSLPEATLLAAALIHPLSPAAQQHTPSLLENVAVINIGLRSFALELQSASKPVVHYQWSPVAGGNKKLARLLERLQ
chain 2: MFTSVAQANAAVIEQIRRARPHWLDVQPASSLISELNEGKTLLHAGPPMRWQEMTGPMKGACVGACLFEGWAKDEAQALAILEQGEVNFIPCHHVNAVGPMGGITSASMPMLVVENVTDGNRAYCNLNEGIGKVMRFGAYGEDVLTRHRWMRDVLMPVLSAALGRMERGIDLTAMMAQGITMGDEFHQRNIASSALLMRALAPQIARLDHDKQHIAEVMDFLSVTDQFFLNLAMAYCKAAMDAGAMIRAGSIVTAMTRNGNMFGIRVSGLGERWFTAPVNTPQGLFFTGFSQEQANPDMGDSAITETFGIGGAAMIAAPGVTRFVGAGGMEAARAVSEEMAEIYLERNMQLQIPSWDFQGACLGLDIRRVVETGITPLINTGIAHKEAGIGQIGAGTVRAPLACFEQALEALAESMGIG
chain 3: MTIIHPLLASSSAPNYRQSWRLAGVWRRAINLMTESGELLTLHRQGSGFGPGGWVLRRAQFDALCGGLCGNERPQVVAQGIRLGRFTVKQPQRYCLLRITPPAHPQPLAAAWMQRAEETGLFGPLALAASDPLPAELRQFRHCFQAALNGVKTDWRHWLGKGPGLTPSHDDTLSGMLLAAWYYGALDARSGRPFFACSDNLQLVTTAVSVSYLRYAAQGYFASPLLHFVHALSCPKRTAVAIDSLLALGHTSGADTLLGFWLGQQLLQGKP
notes: full-length subunits co-expressed from pET30b (pMB191) in E. coli BL21(DE3); 6xHis at N-terminus of AllF and C-terminus of AllH, tags kept; 62, 46, 31 kDa; 555, 419, 271 aa
For orientation: Km means the concentration of substrate that gives half-maximal velocity. In general, kcat refers to the maximal rate divided by the concentration of active sites. For orientation: kcat/Km means the second-order rate constant that governs catalysis at low substrate concentration. Turning to B1, in data set [1], the Km is 1.3 mM, the kcat is 35.5 s⁻¹ and the kcat/Km came to 27300 M⁻¹ s⁻¹. In addition, in data set [2], the Km is 36.9 mM, the kcat came out at 58.5 s⁻¹ and the catalytic efficiency (kcat/Km) was 1600 M⁻¹ s⁻¹.

(Values after PMC11326118, “Oxamic transcarbamylase of Escherichia coli is encoded by the three genes allFGH (formerly fdrA, ylbE, and ylbF)” (Applied and Environmental Microbiology, 2024).)
